Target: human hepatocyte growth factor receptor (hHGFR) (human) (UniProt P08581)
Test: cell-based or functional assay

Sequence of UniProt P08581 (P08581 25-1390): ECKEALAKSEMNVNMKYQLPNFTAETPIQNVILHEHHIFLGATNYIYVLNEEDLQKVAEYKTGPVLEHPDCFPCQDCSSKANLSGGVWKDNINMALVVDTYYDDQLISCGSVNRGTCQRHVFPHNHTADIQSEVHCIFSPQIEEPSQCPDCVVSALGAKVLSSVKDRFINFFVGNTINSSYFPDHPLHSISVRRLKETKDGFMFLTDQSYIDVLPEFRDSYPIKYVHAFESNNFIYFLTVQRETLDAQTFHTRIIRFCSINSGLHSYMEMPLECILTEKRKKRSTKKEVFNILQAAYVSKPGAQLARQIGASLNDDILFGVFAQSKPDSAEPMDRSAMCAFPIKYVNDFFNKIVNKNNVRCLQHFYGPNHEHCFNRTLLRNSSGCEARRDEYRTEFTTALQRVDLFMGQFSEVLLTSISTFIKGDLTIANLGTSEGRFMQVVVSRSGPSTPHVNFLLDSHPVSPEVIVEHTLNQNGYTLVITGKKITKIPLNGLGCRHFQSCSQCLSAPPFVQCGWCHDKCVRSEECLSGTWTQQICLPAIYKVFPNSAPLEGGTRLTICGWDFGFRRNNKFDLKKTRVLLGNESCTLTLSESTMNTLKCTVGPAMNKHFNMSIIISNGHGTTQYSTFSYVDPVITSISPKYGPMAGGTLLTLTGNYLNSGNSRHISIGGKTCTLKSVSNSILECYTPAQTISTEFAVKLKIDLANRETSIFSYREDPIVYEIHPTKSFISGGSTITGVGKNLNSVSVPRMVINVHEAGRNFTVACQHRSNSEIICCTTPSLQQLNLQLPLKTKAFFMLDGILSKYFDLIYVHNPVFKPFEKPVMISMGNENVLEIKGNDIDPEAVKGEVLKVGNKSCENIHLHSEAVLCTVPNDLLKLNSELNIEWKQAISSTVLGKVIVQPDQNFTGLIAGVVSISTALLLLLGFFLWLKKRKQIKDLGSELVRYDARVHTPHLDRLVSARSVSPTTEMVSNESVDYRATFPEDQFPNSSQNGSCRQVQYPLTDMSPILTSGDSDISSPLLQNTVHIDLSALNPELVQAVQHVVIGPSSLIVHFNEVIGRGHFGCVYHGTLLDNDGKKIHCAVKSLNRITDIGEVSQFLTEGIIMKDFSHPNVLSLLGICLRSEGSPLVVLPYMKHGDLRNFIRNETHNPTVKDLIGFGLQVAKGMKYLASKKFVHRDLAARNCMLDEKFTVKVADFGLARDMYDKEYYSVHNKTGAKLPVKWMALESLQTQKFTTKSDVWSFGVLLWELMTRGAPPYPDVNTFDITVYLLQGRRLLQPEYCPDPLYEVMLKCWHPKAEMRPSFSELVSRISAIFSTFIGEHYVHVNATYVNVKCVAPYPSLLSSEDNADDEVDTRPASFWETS

Y705+731F double-mutant AAV3 capsid (Y705+731F scAAV3-CBAp-EGFP vector)
transduction of T47D+hHGFR cells against parental T47D cells: > 5 fold

S663V+T492V mutant AAV3 capsid (rAAV3-S663V+T492V vector)
transduction of T47D+hHGFR cells against parental T47D cells: > 5 fold

wild-type AAV3 capsid (scAAV3-CBAp-EGFP vector)
transduction efficiency (EGFP expression, 72 hr) in T47D+hHGFR cells against T47D cells: 8 to 13 fold | transduction of T47D+hHGFR cells against parental T47D cells: > 5 fold

— EP3492597A2
